According to patent publication US20230203162A1 (NUMAB THERAPEUTICS, published 2023):

Key:
[1] = target: T1, plasma-membranous human MSLN on cell lines (H226, HPAC, H292, OVCAR-3, MeT-5A) (human, UniProt Q13421 296-598); assay: flow cytometry on HPAC cells
T1 construct: whole, on cells; also called human MSLN on H226 cells; mesothelin on target cells

[2] = target: T1, plasma-membranous human MSLN on cell …; assay: cell-based or functional assay
[3] = target: T2, human recombinant CD3ε protein (Sino Biological) (human, UniProt P07766 23-126); assay: SPR, CD3ε amine-coupled to CM5, antibody injected
T2 construct: Bought protein; also called recombinant human CD3ε; human CD3ε

[4] = target: T1, plasma-membranous human MSLN on cell …; assay: cell-based or functional assay; remark: listed apart in the source
[5] = target: T1, plasma-membranous human MSLN on cell …; assay: cell-based or functional assay; remark: listed apart in the source
[6] = target: T2, human recombinant CD3ε protein (Sino …); assay: SPR, CD3ε amine-coupled to CM5, antibody injected; footnote: ka1 of a two-state fitting model
[7] = target: soluble mesothelin (sMSLN); assay: cell-based or functional assay
[8] = target: T1, plasma-membranous human MSLN on cell …; assay: cell-based or functional assay; remark: listed apart in the source
[9] = target: T1, plasma-membranous human MSLN on cell …; assay: flow cytometry on H292 cells
[10] = target: T1, plasma-membranous human MSLN on cell …; assay: flow cytometry on H226 cells, protein L-PE, 4PL fit
[11] = target: T1, plasma-membranous human MSLN on cell …; assay: flow cytometry on H226 cells
[12] = target: T1, plasma-membranous human MSLN on cell …; assay: flow cytometry on H292 cells, protein L-PE, 4PL fit
[13] = target: T1, plasma-membranous human MSLN on cell …; assay: flow cytometry on Met-5A cells, protein L-PE, 4PL fit
[14] = target: T1, plasma-membranous human MSLN on cell …; assay: cell-based or functional assay; remark: listed apart in the source
[15] = target: T2, human recombinant CD3ε protein (Sino …); assay: SPR, CD3ε amine-coupled to CM5, antibody injected; footnote: kd1 of a two-state fitting model
[16] = target: T1, plasma-membranous human MSLN on cell …; assay: cell-based or functional assay; remark: listed apart in the source
[17] = target: T3, recombinant human MSLN (purchased from Peprotech) (human, UniProt Q13421 296-598, limits assumed); assay: SPR (Biacore T200), human MSLN; which of the two formats (MSLN immobilized / antibody captured) not given
T3 construct: Bought protein; also called recombinant human mesothelin

[18] = target: T1, plasma-membranous human MSLN on cell …; assay: flow cytometry on HPAC cells, protein L-PE, 4PL fit
[19] = target: T4, mouse serum albumin (mSA, Sigma-Aldrich A3559) (mouse, UniProt P07724 25-608); assay: SPR, albumin immobilized on CM5, scFv as analyte, 1:1 fit, pH 5.5; biphasic binding corrected with bulk correction
[20] = target: T5, human serum albumin (hSA, Sigma-Aldrich A3782) (human, UniProt P02768 25-609); assay: SPR, albumin immobilized on CM5, scFv as analyte, multi-cycle, 1:1 Langmuir, pH 7.4
[21] = target: T6, cynomolgus monkey serum albumin (cSA, Molecular Innovations CYSA) (cynomolgus monkey); assay: as above
[22] = target: T4, mouse serum albumin (mSA, Sigma-Aldrich …); assay: as above
[23] = target: T5, human serum albumin (hSA, Sigma-Aldrich …); assay: SPR, albumin immobilized on CM5, scFv as analyte, multi-cycle, 1:1 Langmuir, pH 5.5
[24] = target: T6, cynomolgus monkey serum albumin (cSA, …); assay: as above
[25] = target: T4, mouse serum albumin (mSA, Sigma-Aldrich …); assay: as above
[26] = target: T4, mouse serum albumin (mSA, Sigma-Aldrich …); assay: SPR, albumin immobilized on CM5, scFv as analyte, 1:1 fit, pH 7.4; biphasic binding corrected with bulk correction

B1: PRO2000 (MATCH4, biMSLNhigh KD×CD3×hSA) (other)
chain 1: DIQMTQSPSSLSASVGDRVTITCQASQNIYSNLAWYQQKPGKAPKLLIYDASDLASGVPSRFSGSGSGTDFTLTISSLQPEDFATYYCQQVRSSSDIDNPFGTGTKVTVLGGGGGSGGGGSGGGGSGGGGSQVQLVESGGGLVQPGGSLRLSCAASGFSLSSYAMGWVRQAPGKGLEWIGYISTINNTYYASWAKGRFTISRDNSKNTVYLQMNSLRAEDTAVYYCAREIRSGWVDYGFSIWGQGTLVTVSSGGGGSGGGGSEVQLVESGGGLVQPGGSLRLSCAASGFSLSSYDMSWVRQAPGKGLAWIGASYASGPTYYASWAKGRFTISRDNSKNTVYLQMNSLRAEDTATYFCARGGWTGTSHSNIWGQGTLVTVSSGGGSGGGSEVQLVESGGGLVQPGGSLRLSCAASGFSFSSSYWICWVRQAPGKCLEWVGCVFTGDGTTYYASWAKGRFTISRDNSKNTVYLQMNSLRAEDTATYFCARPVSVYYYGMDLWGQGTLVTVSS
chain 2: DIQMTQSPSSLSASVGDRVTITCQASQNIYSNLAWYQQKPGKAPKLLIYDASDLASGVPSRFSGSGSGTDFTLTISSLQPEDFATYYCQQVRSSSDIDNPFGTGTKVTVLGGGGGSGGGGSGGGGSGGGGSQVQLVESGGGLVQPGGSLRLSCAASGFSLSSYAMGWVRQAPGKGLEWIGYISTINNTYYASWAKGRFTISRDNSKNTVYLQMNSLRAEDTAVYYCAREIRSGWVDYGFSIWGQGTLVTVSSGGGGSGGGGSDVVMTQSPSSLSASVGDRVTITCQASQIISSRSAWYQQKPGQPPKLLIYQASKLASGVPSRFSGSGSGTDFTLTISSLQPEDFATYYCQCTYIDSNFGAFGCGTKLTVLGGGSGGSDIQMTQSPSSLSASVGDRVTITCQSSQSVFSNNYLAWFQQKPGQSPKRLIYSASTLASGVPSRFSGSGSGTDFTLTISSLQPEDFATYYCLGSYACSSADCYVFGTGTKVTVLG
notes: Heterodimer; also called biMSLN.CD3
- fold binding against PRO1872 [1]: 1.5 to 2 fold
- EC50 CD8+ T cell activation with H226 cells, 50 ng/ml MSLN [2]: 7.85 pM
- EC50 CD8+ T cell activation with H226 cells, 500 ng/ml MSLN [2]: 42.4 pM
- EC50 CD8+ T cell activation with H226 cells, no MSLN [2]: 1.99 pM
- Kd [3]: 20000 pM
- EC50 CD8+ T cell activation, H292 cells [4]: 114 pM
- EC50 CD8+ T cell activation, HPAC cells [4]: 12.2 pM
- EC50 target cell killing, H292 cells [4]: 652 pM
- EC50 target cell killing, HPAC cells [4]: 40.8 pM
- EC50 target cell killing, H226 cells, 100 ng/ml sMSLN [5]: 3.45 pM
- EC50 target cell killing, H226 cells, no sMSLN [5]: 0.7 pM
- max. killing, H226 cells, 100 ng/ml sMSLN [5]: 58.5%
- max. killing, H226 cells, no sMSLN [5]: 49.4%
- kon [6]: 117000 M⁻¹ s⁻¹
- fold reduction of H226 killing potency with 500 ng/ml sMSLN [7]: 17 fold
- shift of H226 killing potency with 100 ng/ml sMSLN [7]: 5 fold
- fold CD8+ T cell activation potency against PRO1872, HPAC cells [8]: 4 fold
- fold killing potency against PRO1872, H226 cells [8]: 75 fold
- fold lower binding against PRO1872 [9]: 2 fold
- EC50 [10]: 659 pM
- max. binding (MFI) [10]: 362000 MFI
- fold binding against PRO1872 [11]: 3 fold
- EC50 [12]: 1030 pM
- max. binding (MFI) [12]: 6960 MFI
- EC50 [13]: 128 pM
- max. binding (MFI) [13]: 7950 MFI
- EC50 CD8+ T cell activation, Met-5A cells [14]: 544 pM
- EC50 target cell killing, H226 cells (flow cytometry cytotoxicity assay with PBMCs) [14]: 0.07 pM
- EC50 target cell killing, Met-5A cells [14]: 145 pM
- koff [15]: 0.00391 s⁻¹
- EC50 H226 target cell killing, 50 ng/ml soluble mesothelin [16]: 31.2 pM
- EC50 H226 target cell killing, 500 ng/ml soluble mesothelin [16]: 165 pM
- EC50 H226 target cell killing, no mesothelin [16]: 9.73 pM
- Kd [17]: 1060 pM
- koff [17]: 0.000421 s⁻¹
- kon [17]: 398000 M⁻¹ s⁻¹
- EC50 [18]: 1480 pM
- max. binding (MFI) [18]: 17500 MFI

B2: anti-hSA scFv PRO2155 (domain 19-04-A10-sc02) (scFv, V domains shown)
VH: EVQLVESGGGLVQPGGSLRLSCAASGFSLSSYAMNWVRQAPGKGLEWIGHINAGDIAYYATWAKGRFTISRDNSKNTVYLQMNSLRAEDTAVYFCARGAGGFSTGPFKLWGQGTLVTVSS
VL: AFELTQSPSSLSASVGDRVTITCQASESINSRLAWYQQKPGQPPKLLIYDASDLTSGVPSRFSGSGSGTDFTLTISSLQPEDFATYYCQGYGGSSTTTFGGGTKLTVLG
notes: Tested as scFv
- Kd [19]: 2500 pM
- Kd [20]: 2200 pM
- koff [20]: 0.0012 s⁻¹
- kon [20]: 550000 M⁻¹ s⁻¹
- Kd [21]: 1600 pM
- koff [21]: 0.00091 s⁻¹
- kon [21]: 580000 M⁻¹ s⁻¹
- koff [22]: 0.00029 s⁻¹
- kon [22]: 32000 M⁻¹ s⁻¹
- Kd [23]: 3300 pM
- koff [23]: 0.003 s⁻¹
- kon [23]: 900000 M⁻¹ s⁻¹
- Kd [24]: 2300 pM
- koff [24]: 0.0021 s⁻¹
- kon [24]: 910000 M⁻¹ s⁻¹
- koff [25]: 0.0002 s⁻¹
- kon [25]: 78000 M⁻¹ s⁻¹
- Kd [26]: 9000 pM
